Test system: MS2 coat protein
Assay: apparent KD of MS2 coat protein; higher = weaker reporter binding
Settings: Eterna round: R107
Method in brief: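 Titrations with SNAP-549-labelled MS2 coat protein ran in twofold steps from 0.7 or 1.5 nM to 3 µM, each step taking 0.8–1.5 h at the start and 10–20 min toward the end. The targets were designed RNA switches transcribed on-chip from Illumina sequencing clusters, held in 100 mM Tris-HCl pH 7.5, 80 mM KCl, 4 mM MgCl2, without or with constant ligand. Apparent KD was taken per design as the median of normalised cluster binding-curve fits.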

[1] = input ligand: theophylline 20 uM
[2] = input ligand: theophylline 2 mM
[3] = input ligand: tryptophan 2.4 mM

Row | Sequence | apparent KD of MS2 coat protein (input ligand: arginine 13.2 mM) [nM] | apparent KD of MS2 coat protein (input ligand: none) [nM] | apparent KD of MS2 coat protein [1] [nM] | apparent KD of MS2 coat protein [2] [nM] | apparent KD of MS2 coat protein [3] [nM]
1 | AGUCUUAUAGGAAGGAGCGCAUACUUCACAUGAGGAUCACCCAUGUCAAGACGUGAGUCAGUGCAGGUAGGUCGCCUAACUAAGA [Same State - Arginine B (Freestyle 13)] | 27.2 | 29.2 | 29.7 | 32.1 | 27.7
2 | GAUACCAUGAUCCUCCUGGUAUCGGCUGAUACCAGCCAGCUGACUGGCCCUUGGCAGCAGCAUACAUGAGGAUCACCCAUGUUAA [(T)''-(M)'-(T)'-(Theo)-(Ms2)_Design4] | 35.4 | – | 163 | – | 61
3 | CCUAUAUAGUCGGCCGCCACUGACUACAUGAGGAUCACCCAUGUAACACGAACAUGGUCCUGGAUCAGGACCGGGACUAUAUAGG [Tryp B Ex t5] | 16.5 | 20.7 | 24.2 | 22.2 | 122
4 | UCUUGAGUUUCGGAUACCAGUGUUGUCGAUACAUGAGGAUCACCCAUGUUAGAGGAUGUACACCCUUGGCAGCCGGCUGUGGCGG [zszmullin] | 13.7 | – | 21.9 | – | 19
5 | ACAUGAAGAACAGCGGUGGGCGCGCUCGAUACCAGUACUUUAAAAUACCCUUGGCAGCGACAUGAGGAUCACCCAUGUGAGAUGA [XTheo A #4] | 15.3 | – | 18.5 | – | 18.5
6 | AUAUAUACAUGAGGAUCACCCAUGUUAUUUCGAGGACCGGUACGGCCGCCACUCGAUAGAGUAGAAGUAACAUUUGUUAGAUGUA [JR_SSTryptoA_Sub011] | 19.7 | – | 28.3 | 22 | –
7 | CAAUUUAGAAAACUAAAUUGAGUGGGUGAACGAGGACCGGUACGGCCGCCACUCGGACAUGAGGAUCACCCAUGUCCAUGUGAAA [AstrosExyTryA#23] | 11.3 | 14.8 | 15.8 | 16.6 | 29.2
8 | ACGAACUGUAGUGAUACCAGACGUACAUGAGGAUCACCCAUGUUGUAAACAUGGUGAAUAGUCCCUUGGCAGCACAGUUAGUUCG [#11 Exclusion-TheophyllineB] | 162 | – | 355 | – | 299
9 | UGUAUGUGAUCUGAUACCAGCUUUGAUAACCUGAGGAUCACCCUGGUAAGGCGAAAGCCAAGCCCUUGGCAGCAGAUCGCAUACU | 40.1 | 34.5 | 34.5 | 21.9 | 37.3
10 | AAACAUUGCUCAGAUACCAGACAUGAGGAUCACCCAUGUACCAAGGUAACCGAAAGGCAUGUCCCUUGGCAGCUGAGCAAUGAAA [MAT - Exclusion Theophlline B - Mod of Eli - D15] | 13.5 | – | 17.4 | – | 13
11 | UGUAUGUGAUCUGAUACCAGAGUGAAUAAACCUGAGGAUCACCCUGGUACGCGAAAGCGACUCCCUUGGCAGCAGAUCGCAUACU | 127 | 163 | 108 | 21.8 | 156
12 | GAGUUCCUGAGAGAUACCAGUGAGGCCACAUGAGGAUCACCCAUGUCCCUCACUCCGGCCCACCCUUGGCAGCUCGAAAGAUAUU [Exclusion Theophylline B GF 22] | 11.3 | – | 16.7 | – | 12.1
13 | ACUAGUUGUGCAGAUACCAGACAUGAGGAUCACCCAUGUUUGGGAUCUUCGGAUCUUCCUGUCCCUUGGCAGCUGUACAUCUAGA [Omei Theo B Exc v3] | 62.6 | – | 178 | – | 125
14 | AAUUAUUUCUCAAUUAUUUAAUCUUCAGAAGGAGCGUGAUGAUUCACAGGUAGGUCGCUGAUGACAUGAGGAUCACCCAUGUAUU [JR_SSArginiA_Sub003] | 30.6 | 30.1 | 31.1 | 29.1 | 27.5
15 | UCGGGCAUAGCGGCCGCCACUGUUUGGCGUGCGGAUGACGGAACAUGAGGAUCACCCAUGUUGUUUAGGACCGGGCUUGCGUCGU [zyzmullin] | 14 | – | 17.8 | 14.5 | –
16 | AUUCAUGGAAACAUGACAUAGGGAUCCGGUCGAGGACCGGUACGGCCGCCACUCGUUUGGAGGCACAUGAGGAUCACCCAUGUUA [SS Tryp A #7] | 40.7 | – | 118 | 101 | –
17 | AAAUUAUAGGCGGCCGCCACUAGAGUUAGGCUUAUGUACUGGGUAACAUGAGGAUCACCCAUGUAUAGGACCGGGCCAUAAUAAA [Same State - Tryptophan B (Freestyle 3)] | 46.9 | – | 76.2 | 63.5 | –
18 | ACUAGUUGUGCAGAUACCAGGCACGAGGAUCACCCGUGUUUGGGAUGUUCGCAUCUUCCUGUCCCUUGGCAGCUGUACAUCUAGA [Omei Theo B Exc v9] | 29.6 | 30.9 | 54.3 | 155 | 37.4

Row | Sequence | apparent KD of MS2 coat protein (input ligand: arginine 13.2 mM) [nM] | apparent KD of MS2 coat protein (input ligand: none) [nM] | apparent KD of MS2 coat protein [1] [nM] | apparent KD of MS2 coat protein [2] [nM] | apparent KD of MS2 coat protein [3] [nM]
19 | GAAGAGACCUCGGCCGCCACUCGCCAUGAGGAUCUCCCAUGUAACAUGAGGAUCACCCAUGUACAGAGGACCGGGAGGUCCUAGU [Same State Tryptophan B GF 14] | 12.8 | 21.2 | 39.1 | 24.8 | 50.1
20 | GGGAAUGAACGUGAUACCAGAGAUCCGGUCUCCGUCAAUAUACAUGAGGAUCACCCAUGUCUCCCUUGGCAGCACCGUCAUCGGG [Exclusion Theophylline B GF 28] | 14.3 | – | 20.4 | – | 14.5
21 | GGGCAAGAGGGAAGGAGCGUCAGCUGAGUCACAUGAGGAUCACCCAUGUCGCACAUAGUGUGACAGGUAGGUCGCCCUCUGCCCU [Zaistiqu] | 74.3 | 131 | 158 | 201 | 133
22 | UGUAUGGACUGAAGGAGCGGGUUGAUAACCUGAGGAUCACCCAGGUAAAAGGCGAAAGCCACCCAGGUAGGUCGCAGUCCAUACU | 16.3 | 18.1 | 21.6 | 19.7 | 20
23 | GAUGAACUAUUUGAUACCAGACAACAUGAGGAUCACCCAUGUGCGCGUCGUCCUCUGCCUGUCCCUUGGCAGCGGAUAGUUUAUC [XTheo B #12] | 32.5 | – | 124 | – | 34.9
24 | AAUGUAUGGCACAUGAGGAUCACCCAUGUGCGAGGACCGGUACGGCCGCCACUCGGUCCUGGGAACUUAUUACUAUACAUUAAUG [XTryp A #18] | 11.9 | – | 16.9 | 13.1 | –
25 | GGUCUCUGGAGCGAUACCAGCUUAAUCGUACUGGCCAGGUACAUGAGGAUCACCCAUGUAAGCCCUUGGCAGCGCUCCAGAGACC [#1 Exclusion - Theophylline B Attempt #11 (HarryS)] | 6.02 | 12.9 | 16.4 | 14.4 | 10.5
26 | UGUUUUGUGGGAAGGAGCGCAUACUUCACAUGAGGAUCACCCAUGUCAAGACGUGAGUCAGUGCAGGUAGGUCGCCUAGUUAAGA [Same State - Arginine B (Freestyle 16)] | 52.8 | 70.4 | 59 | 61.9 | 49.3
27 | CGAAUGAAGCAAGAUACCAGUGUAGAUUUAGACAUGAGGAUCACCCAUGUGAGGCAUGAGCACCCUUGGCAGCUUAAGCAGAAAA [theeternabot_sameState_MS2_Theo_B_47] | 115 | 28.7 | 25.7 | 60.5 | 29.4
28 | AAUGUGAAGGCGGCCGCCACUGAUAAUAGACAUGAGGAUCACCCAUGUAUAAAUCCUCAAUAAGACAGGACCGGGCCAUCUACGU [#25 Exclusion Tryptophan B] | 59 | – | 134 | 122 | –
29 | UUAUUUAUAGGCGAUACCAGCCGAAUGGCCGCAAAUCCUAACAUGAGGAUCACCCAUGUCGGCCCUUGGCAGCGCCUAUGGGUUU [XTheo B #27] | 114 | 94.7 | 255 | 480 | 93.3
30 | CGAUUUAAGACGGCCGCCACUAUUAAGUAACAAAAUAAACAUGAGGAUCACCCAUGUACAUGGGAUAGGACCGGGUCCAAUAUCG [A2] | 34.8 | – | 79.7 | 84.4 | –
31 | CCUAUCCAGUCGGCCGCCACUGACCAUUUGGAACAGUGGGUGAAAACAUGAGGAUCACCCAUGUACAGGACCGGGACUGUAUAGG [Ex Tryptophan B 20] | 14.7 | – | 15.7 | 13.9 | –
32 | CUCAUCCACGCGGCCGCCACUAUAUUGUGGUGUGAAUGUGUCGUAAUACAUGAGGAUCACCCAUGUAGGACCGGGCGUGGAUGAG [#08 Exclusion Tryptophan B] | 19.3 | – | 30.9 | 37.4 | –
33 | ACAUGAGGAUCACCCAUGUCAGGGCACGAUACCAGCUGAUCCGAUGGCCCUUGGCAGCGUGACGUGUGGUCAUGAGGAUCACCCG [kvfmullin] | 139 | – | 209 | – | 182
34 | UAACAUGAGGCGGCCGCCACUCAACAUGAGGAUCACCCAUGUAUGUGUAAACAUGAGGAUCACCCGAGGACCGGGCCCUUGUAAU [Same State Tryptophan B 4] | 25.2 | 33.4 | 46.7 | 39.5 | 54.2
35 | AUAUAUAUGCGAAGGAGCGGGAAAUAUAUAUAUAUAAUCCUAACAUGAGGAUCACCCAUGUCCCAGGUAGGUCGCGCAUAUAUAU [12.A] | 68.2 | 74 | 88.5 | 87 | 72.2
